This series can be described thus: yeast display, Sf9 membrane polyspecificity reagent, FACS + sequencing; frameworks hold sequencing errors. A digest of the protocol: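 Nanobodies from a synthetic yeast display library (Saccharomyces cerevisiae BJ5465), induced 36–48 hours with galactose, were stained 1 hour at 4 °C with 10% biotinylated, detergent-solubilized Sf9 membrane reagent, enriched on streptavidin microbeads, then FACS-sorted. Anti-HA (expression) and streptavidin (reagent binding) fluorescence set low and high (top ~1%) gates. Polyreactivity labels come from the gate of origin. Genes were colony-PCR amplified, MiSeq 2 × 250 sequenced and filtered by CDR length.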
For the sequence “QVQLVESGGGLGQAGGSLRLSCAASGIIFQYYAMGWYRPAPGKERELVAVISSSGTNTYYADSVKGRFTISRDNAKNTVYLQMNSLKPEDTAVYYCNKVYRWFTRFDYWGQGTQVTVSS”, the “polyreactivity (PSR sort gate)” value is “high polyreactivity”.

Take “QVQLVESGGGLGQAGGSLRLSCAASGRIFNTYAMGWYRQAPGKERELVAAITRSAGRTYYADSVKGRFTISRDNAKNTGYLQMNSQKPEDTAVYYCAAQYNYGQRSGPYGYWGQGTQVTVSS”: the “polyreactivity (PSR sort gate)” value is recorded as “low polyreactivity”.

In the case of “QVQLVESGGGLGQAGGSLRLSCAASGRTITFNTMGWYRPAPGKERELVAGIDRGGSTNYADSVKGRFTISRDNAKNTVDLQMNSLKPEDTAVYYCAARNLRYRYRNYDYWGQGTQVTVSS”, the “polyreactivity (PSR sort gate)” value is given as “high polyreactivity”.

On to “QVQLVESGGGLGQAGGSLRLSCAASGSIFAGNAMGWYRQAPRKERELVAAISRRGGSTYYADSVKGRFTISRDNAKNTVYLQMNSLKPEDTAVYYCNALLRYAYHAAYGYWGQGTQVTVSS”, for which the “polyreactivity (PSR sort gate)” value is recorded as “high polyreactivity”.

For “QVQLVESGGGLGQAGGSLRLSCAASGSIFPAYAMGCYRQAPGKERELVAAITFSGGSTYYADSVKGRFTISRDNAKNTVYLQMNSLKPEDTAVYYCATDSYGWRFNRAITSYGGDYWGQGTQVTVSS”, the “polyreactivity (PSR sort gate)” value is reported as “low polyreactivity”.

Consider “QVQLVESGGGLGQAGGSLRLSCAASGSIFPEYVMGWNRQAPGKERELVAAISWSGGSTYYADSVKGRFTISRDNAKNPVFLQMNSLKPEDTAVYYCNRVPSWRIDYDYWGQGTQVTVSS”, for which the “polyreactivity (PSR sort gate)” value was “low polyreactivity”.

In the case of “QVQLVESGGGLGQAGGSLRLSCAASGSIIPWNVMGWSRQARGKEREFVAGITFRVGSTYYADSVKGRFTISRDNAKNTVYLQMNSLKPEDTAVYYCAALIRAVDRYTYRYGYWGQGTQVTVSS”, the “polyreactivity (PSR sort gate)” value is reported as “high polyreactivity”.

As to “QVQLVESGGGLGQAGGSLRLSCAASGSTFARNTMGWYRQAPGKERELVAVITRGDSTYYADSVKGRFTISRDNAKNTVNLQMNSLKPEDTAVYYCNAYFRYAYPSKMDYWGQGTQVTVSS”, the “polyreactivity (PSR sort gate)” value is on record as “low polyreactivity”.

As to “QVQLVESGGGLGQAGGSLRLSCAASGSTFPYYAMGWSRPAPGKERELVAVITSSGSRTYYADSVKGRFSMSRDKAKNTVYLQMNSLKPEETAVYYCARDTRYYRPYRSQYDYWGQGTQVTVSS”, the “polyreactivity (PSR sort gate)” value is “high polyreactivity”.

“QVQLVESGGGLGQAGGTLRLTCAASGSIFRTYAMGWYRQAPGKERELVAAITWSGGRTYYADSVKGRFTISRDNATNTVYLPMISLKPDDTAVYYCNAVYLAYGGDYWGQGTQVTVSS”: the “polyreactivity (PSR sort gate)” value is on record as “high polyreactivity”.

Consider “QVQLVESGGGLIQAGGSLRLSCAASGIIFYPYTMGWYRQAPGKERELVAAIRQSGTSTYYADSVKGRFTISRDNAKNTVYLQMNSLKPEDTAVYYCAAPPYYSYDYWGQGTQVTVSS”, for which the “polyreactivity (PSR sort gate)” value is recorded as “low polyreactivity”.

On to “QVQLVESGGGLLHAGGSLRLSCAASGRIFWFYTMGWYRQAPGKERELVAAISDSAGSTYYADSVKGRFTISRDNAKYTVYVPMNSLKPEDTAVYYCDADGWWQYDYWGHGTQVTVSS”, for which the “polyreactivity (PSR sort gate)” value was “low polyreactivity”.

Regarding “QVQLVESGGGLLQAGGRLRLSCAASGSIFPYYAMGWYRQAPGKERALVAAISDSGDSTYYADSVKGRFTMSRDNAKNTVYLQMNSLKPEDTAVYYCAADQTSSYYDPWGDYWGQGTQVTVSS”, the “polyreactivity (PSR sort gate)” value is “low polyreactivity”.

As for “QVQLVESGGGLLQAGGSLRFSCAASGRILAGNAMGWYRQAPGTEREWVAAICSVDSTNYADSVKGRFTISRDNAKNTFYLLMYSLKPEDSAVYYCARVPQYNTYSEFDSWGQGTQVTVSS”, the “polyreactivity (PSR sort gate)” value is recorded as “low polyreactivity”.

Consider “QVQLVESGGGLLQAGGSLRLSCAASGFIFRTYAMGWYRQAPGKERELVARISWSGGSTYYADSVKGRFTISRDNAKNTVYLQMNSLITEDTAVYYCARLGTLYESIEYDYWGQGTQVTVSS”, for which the “polyreactivity (PSR sort gate)” value is listed as “low polyreactivity”.

Consider “QVQLVESGGGLLQAGGSLRLSCAASGFIFSLYAMGWYRQAPGKERELVASINRRGTSTFYADSVKGRFTISLDNAKKTVYLQMNSMKPEDTAVYYCNAYPVAAIRSTGSYDYWGQGTQVTVSS”, for which the “polyreactivity (PSR sort gate)” value is “low polyreactivity”.

On to “QVQLVESGGGLLQAGGSLRLSCAASGFTFQYNAMGWYRQAPGKERELVAAISRSGTSTYYADSVKGRFTISRDNAKNTVYLQMNSLKPEDTGVYYCNAYYLSGSVYWTGDIYDYWGQGTQVTVSS”, for which the “polyreactivity (PSR sort gate)” value was “high polyreactivity”.

For “QVQLVESGGGLLQAGGSLRLSCAASGFTFSFYARGWYRQAPGKERELVAAISYSGGITYYADSVKGRFTISRDNAKNTVYLQINSLKPEDTAVYYCAAVPGISVGRQPGYDYDYWGHGTQVTVSS”, the “polyreactivity (PSR sort gate)” value was “low polyreactivity”.

Consider “QVQLVESGGGLLQAGGSLRLSCAASGFTFYPNAMGWYRQAPGKERELVAAISRSGSSTYYADSVKGRFTISRDNAKNTVYLQMNSLKPEDTAVYYCNRYGRQYDFYYWGQGTQVTVSS”, for which the “polyreactivity (PSR sort gate)” value is given as “high polyreactivity”.

In the case of “QVQLVESGGGLLQAGGSLRLSCAASGFTISYNVMGWYRQAPGKERELVAAITYSGGSTYYADSVKGRFTISRDNAKNTVYLQMNSLKPEDTAVYYCAAENGMPMDYWGQGTQVTVSS”, the “polyreactivity (PSR sort gate)” value was “low polyreactivity”.

On to “QVQLVESGGGLLQAGGSLRLSCAASGIIIYYYAMGWYRQAPGKERELVAAITYRGGSTYADSVKGRFTISRDNAKNTVYLQMNSLKPEDTAVYYCNAVWEEKYQAPGSYDYWGQGTQVTVSS”, for which the “polyreactivity (PSR sort gate)” value is listed as “low polyreactivity”.

In the case of “QVQLVESGGGLLQAGGSLRLSCAASGITFTSYVMGWYRQAPGKERELVAAIRWSGGRTYYADSVKGRFTISRDNAKYTVYLQMNSLKPEDTAVYYCNRVTRSHVDYWGQGTQVTVSS”, the “polyreactivity (PSR sort gate)” value is on record as “high polyreactivity”.

For the sequence “QVQLVESGGGLLQAGGSLRLSCAASGRIFAVYAMGWYRQAPGKEREFVAAISYSGGITYYADSVKGRFTISRDNAKNTVYLQMNSLKPEDSAVFYCNSYYYFWGQGTQVTVSS”, the “polyreactivity (PSR sort gate)” value is reported as “low polyreactivity”.

Turning to “QVQLVESGGGLLQAGGSLRLSCAASGRIFGDYGMGWYRQAPGKERELVAAITDRGGTTYYADSVKGRFTISRDNAKKTVYLQMNSMKPEDNAVYYCNARQSDIFDYDYWGQGTQVTVSS”, the “polyreactivity (PSR sort gate)” value is “low polyreactivity”.

With “QVQLVESGGGLLQAGGSLRLSCAASGRIFGVYAMGWYRQAPGKEMELVAAISWGGGSTYYADSVKGRFTISRDNAKNTVYLQMISLKPEDTAVFDCAADPPDGFYYTWDYDYWGQGTQVTVSS”, the “polyreactivity (PSR sort gate)” value is listed as “low polyreactivity”.

For “QVQLVESGGGLLQAGGSLRLSCAASGRIFHYYAMGWYRQAPGKERELVAGIETSGGSTYYADSVNWRFTISRDNAKNTVYLKLNSLKPEDTAVYYCATDQYYSYDYVYWGQGTQVTVSS”, the “polyreactivity (PSR sort gate)” value is “low polyreactivity”.

Take “QVQLVESGGGLLQAGGSLRLSCAASGRIFYSNAMGWYRQAPGKERELVATRTRRGGGTYYADSVKGRFTISRDNAKNSVYLQMNSLKPVDTAVYSCNAYDILPGGNFWYWYGSWGQGTQVTVSS”: the “polyreactivity (PSR sort gate)” value is “high polyreactivity”.

For “QVQLVESGGGLLQAGGSLRLSCAASGRTFSGYTMGWYRQAPGKERELLATIRDRGGSTYYADSVKGRFTISRDNAKNTVYLQMNSLTPEDSAVYYCAARRGRRYYYWGQGTQVTVSS”, the “polyreactivity (PSR sort gate)” value was “high polyreactivity”.

With “QVQLVESGGGLLQAGGSLRLSCAASGRTFYSNAMGWYRQAPGKERELVATISSGGSTNYADSVKGRFTISRDNAKNTVYLQMNSLKPEDTAVYYCAKRTHQFGVSRSYNTYYYWGQGTQVTVSS”, the “polyreactivity (PSR sort gate)” value is given as “low polyreactivity”.

For the sequence “QVQLVESGGGLLQAGGSLRLSCAASGRTFYVYAMGWYRQAPGKEREFVAAIDWGGGTTYYADSVKGRFTISRDNAKNNVYLQMNCLKPEDTAVYYCNAAYTDRFYYWGQGTQVTVSS”, the “polyreactivity (PSR sort gate)” value is “high polyreactivity”.

The record behind these values is the nanobody polyreactivity screen of Harvey et al. (2022).
